Assays:
[1] = test system: peripheral blood mononuclear cells (PBMC); assay: RESTORE cytokine release assay in absence of TCR stimulation; type: cell-based, human; set-up: IFNγ: unit not given beside the values
Method: The ability of variant CD80-Fc fusion proteins to promote cytokine release in the absence of TCR stimulation was assessed in the RESTORE (RESetting T cells to Original Reactivity) assay (Römer et al, Blood, 2011). Freshly isolated peripheral blood mononuclear cells (PBMC) from whole blood of several healthy donors were cultured for 48 hours at […] within RPMI1640 media supplemented with 10% autologous plasma, 10 mM HEPES, 1× GlutaMAX, 1× PenStrep, beta2-mercaptoethanol, NEAA and sodium pyruvate. Following the 48-hour incubation, PBMC were pelleted and resuspended at a final concentration of 10^6/ml with indicated soluble drug. Treatment was allowed for 48 hours then supernatant was harvested and assessed in IL-2 and IFNγ ELISA according to manufacturer's protocol (BioLegend).
Positive controls included CD28 superagonist anti-CD28 clone TGN1412 as IgG1 and IgG4 isotypes and anti-CD3. […] Values shown are the average of 3 technical replicates. D=Donor.

[2] = test system: CT26 murine colorectal carcinoma tumor cells; assay: CT26 murine colorectal carcinoma model; type: in vivo, mouse; settings: for Day 10 tumor volume: Days 0 and 3; for % tumor growth inhibition: Day 10; for # IFNγ-producing spots (tumor-reactive T cells in spleen): average of n = 4 mice
Method: CT26 murine colorectal carcinoma tumor cells (1×10^6) were subcutaneously implanted in the hind flank of female Balb/c mice. When tumors reached ˜100 mm3 (Day 8), mice were randomized. PBS vehicle control or variant CD80-Fc fusion proteins were dosed intravenously at 0.1 and 1.0 mg/kg on Days 0 and 3. Tumor volume was determined by caliper measurements obtained in 2 dimensions and calculated as width^2×length/2. Error bars are depicted as ±SEM.
IFNγ ELIspot was used to measure tumor-reactive T cells in the spleen in mice treated with CD80-Fc fusion proteins at a 1 mg/kg dose.
Cytotoxic CD8^+ T cells are responsible for killing cancer cells and the measurement of CD8^+ T cells that have infiltrated tumors commonly correlates with efficacy for immune-oncology therapies. For all in vivo studies, tumors were collected ˜1 week after the first dose and dissociated by mincing, followed by incubation in an enzymatic digestion cocktail and homogenization. The resulting cell suspension was filtered and washed, and single cells were stained with antibodies to CD45, CD8, and a viability dye to detect tumor-infiltrating lymphocytes (TILs) by flow cytometry. Data were acquired on a BD LSRFortessa flow cytometer or a Cytek Aurora spectral flow cytometer. Table 31 and FIG. 18 show the amount of tumor-infiltrating CD8+ T cells expressed as a percentage of total immune cells (CD45+). Each value is the average of n=4 mice per group. Treatment with all variant CD80-Fc fusion proteins led to increase in CD8+ TILs in various tumor models.

[3] = Thermal forced aggregation (SEC); type: physicochemical; settings: 24 hours, PBS
Method: To assess the aggregation propensity of variant CD80-Fc fusion proteins, 1 mg/ml of CD80-Fc fusion protein was incubated in PBS at increasing temperatures for 24 hours. The samples were analyzed by SEC on an Agilent 1100 (Agilent Technologies, Germany) HPLC system using a YMC-Pack Diol-200 (YMC, Germany) analytical size exclusion chromatography column and PBS supplemented to 400 mM NaCl as running buffer. % aggregation was calculated from the loss of intact peak area. […] ND=Not Determined.

[4] = Pharmacokinetics in huFcRn transgenic mice; settings: 0.1 mg/kg IV
Method: PK of CD80-Fc fusion proteins was also assessed in transgenic mice expressing the human neonatal Fc receptor (huFcRn) a-chain transgene under the control of its natural human promoter. Female mice were dosed intravenously with CD80-Fc fusion proteins at 0.1 mg/kg, and blood was collected at the timepoints indicated on the graph. Levels of CD80-Fc in mouse plasma were measured as described above.

[5] = Viscosity (Anton Paar rheometer); type: physicochemical; settings: 20 mM histidine, 8.5% sucrose, pH 5.8
Method: The viscosity of CD80-Fc fusion proteins was assessed at various concentrations. Lower viscosity is desired for subcutaneous administration, and providing optimal syringeability and minimal pain to patients. Viscosity was measured using an Anton Paar rheometer and a CP-25 measuring system at 150 rpm. The sample comprised CD80-Fc fusion proteins in 20 mM histidine and 8.5% sucrose at pH 5.8.

Substance: CD80-D90Q-Fc: variant CD80 ECD (D90Q) fused to human IgG1 Fc
- IFNγ ([1]; Table 20, D222, 1 μg/ml): 3.3
- IFNγ ([1]; Table 20, D222, 10 μg/ml): 4.0
- IL-2 ([1]; Table 20, D222, 10 μg/ml): 9.0
- IFNγ ([1]; Table 20, D281, 1 μg/ml): 3.3
- IL-2 ([1]; Table 20, D281, 1 μg/ml): 2.3
- IFNγ ([1]; Table 20, D281, 10 μg/ml): 3.3
- IL-2 ([1]; Table 20, D281, 10 μg/ml): 2.3
- IFNγ ([1]; Table 20, D462, 1 μg/ml): 8.3
- IL-2 ([1]; Table 20, D462, 1 μg/ml): 1.7
- IFNγ ([1]; Table 20, D462, 10 μg/ml): 10.3
- IL-2 ([1]; Table 20, D462, 10 μg/ml): 1.7
- IFNγ ([1]; Table 20, D547, 1 μg/ml): 3.3
- IL-2 ([1]; Table 20, D547, 1 μg/ml): 9.0
- IFNγ ([1]; Table 20, D547, 10 μg/ml): 7.7
- IL-2 ([1]; Table 20, D547, 10 μg/ml): 3.3
- Number of tumor regressions ([2]; 0.1 mg/kg): 0/10
- Day 10 tumor volume ([2]; 0.1 mg/kg IV): 728.3 mm^3
- % tumor growth inhibition ([2]; 0.1 mg/kg): 39.20%
- Number of tumor regressions ([2]; 1 mg/kg): 6/10
- Day 10 tumor volume ([2]; 1 mg/kg IV): 295.8 mm^3
- % tumor growth inhibition ([2]; 1 mg/kg): 75.31%
- # IFNγ-producing spots (tumor-reactive T cells in spleen) ([2]; 1 mg/kg): 341.6875
- CD8^+ T cell infiltrates (% CD45) ([2]; CT26, 1 mg/kg, n=4): 27.4 % CD45
- % aggregation ([3]; Table 11, 40° C.): 81.6%
- % aggregation ([3]; Table 11, 45.3° C.): 89.5%
- % aggregation ([3]; Table 11, 49.4° C.): 89.5%

Substance: CD80-K89D-D90K-T28V-T57V-Fc: non-cysteine stabilized variant CD80-Fc fusion protein (K89D, D90K, T28V, T57V)
- AUC [4]: 147 µg·h/mL
- CL [4]: 14 mL/day/kg
- Vdss [4]: 0.082 L/kg
- Cmax ([4]; average of 3 animals): 2300 ng/mL
- IL-2 ([1]; Table 21, D132, 1.9 μg/ml): 0.0
- IL-2 ([1]; Table 21, D132, 5.6 μg/ml): 0.3
- IL-2 ([1]; Table 21, D132, 16.7 μg/ml): 0.7
- IL-2 ([1]; Table 21, D132, 50 μg/ml): 3.7
- IL-2 ([1]; Table 21, D149, 1.9 μg/ml): 0.0
- IL-2 ([1]; Table 21, D149, 5.6 μg/ml): 0.0
- IL-2 ([1]; Table 21, D149, 16.7 μg/ml): 3.7
- IL-2 ([1]; Table 21, D149, 50 μg/ml): 0.3
- IL-2 ([1]; Table 21, D379, 1.9 μg/ml): 2.3
- IL-2 ([1]; Table 21, D379, 5.6 μg/ml): 0.0
- IL-2 ([1]; Table 21, D379, 16.7 μg/ml): 0.0
- IL-2 ([1]; Table 21, D379, 50 μg/ml): 0.0
- IL-2 ([1]; Table 21, D399, 1.9 μg/ml): 0.0
- IL-2 ([1]; Table 21, D399, 5.6 μg/ml): 0.0
- IL-2 ([1]; Table 21, D399, 16.7 μg/ml): 0.0
- IL-2 ([1]; Table 21, D399, 50 μg/ml): 0.0
- IL-2 ([1]; Table 21, D417, 1.9 μg/ml): 0.0
- IL-2 ([1]; Table 21, D417, 5.6 μg/ml): 0.0
- IL-2 ([1]; Table 21, D417, 50 μg/ml): 0.0
- IL-2 ([1]; Table 21, D518, 1.9 μg/ml): 1.3
- IL-2 ([1]; Table 21, D518, 5.6 μg/ml): 0.3
- IL-2 ([1]; Table 21, D518, 16.7 μg/ml): 0.0
- IL-2 ([1]; Table 21, D518, 50 μg/ml): 3.0
- IFNγ ([1]; Table 22, D132, 1.9 μg/ml): 0.0
- IFNγ ([1]; Table 22, D132, 5.6 μg/ml): 0.0
- IFNγ ([1]; Table 22, D132, 16.7 μg/ml): 41.3
- IFNγ ([1]; Table 22, D132, 50 μg/ml): 0.0
- IFNγ ([1]; Table 22, D149, 1.9 μg/ml): 0.0
- IFNγ ([1]; Table 22, D149, 5.6 μg/ml): 0.0
- IFNγ ([1]; Table 22, D149, 16.7 μg/ml): 0.0
- IFNγ ([1]; Table 22, D149, 50 μg/ml): 12.3
- IFNγ ([1]; Table 22, D379, 1.9 μg/ml): 2.0
- IFNγ ([1]; Table 22, D379, 5.6 μg/ml): 0.0
- IFNγ ([1]; Table 22, D379, 50 μg/ml): 0.0
- IFNγ ([1]; Table 22, D399, 1.9 μg/ml): 0.0
- IFNγ ([1]; Table 22, D399, 5.6 μg/ml): 0.0
- IFNγ ([1]; Table 22, D399, 16.7 μg/ml): 0.0
- IFNγ ([1]; Table 22, D399, 50 μg/ml): 13.7
- IFNγ ([1]; Table 22, D417, 1.9 μg/ml): 0.0
- IFNγ ([1]; Table 22, D417, 5.6 μg/ml): 94.3
- IFNγ ([1]; Table 22, D417, 16.7 μg/ml): 0.0
- IFNγ ([1]; Table 22, D417, 50 μg/ml): 0.0
- IFNγ ([1]; Table 22, D518, 1.9 μg/ml): 0.0
- IFNγ ([1]; Table 22, D518, 5.6 μg/ml): 0.0
- IFNγ ([1]; Table 22, D518, 16.7 μg/ml): 0.0
- IFNγ ([1]; Table 22, D518, 50 μg/ml): 0.0
- Viscosity ([5]; 92.7 mg/ml): 12.1 cP
- Viscosity ([5]; 119 mg/ml): 27.8 cP
- % aggregation ([3]; Table 12, 40° C.): 0.6%
- % aggregation ([3]; Table 12, 45.3° C.): 6.0%
- % aggregation ([3]; Table 12, 49.4° C.): 62.8%
- % aggregation ([3]; Table 12, 54.9° C.): 72.5%

Substance: CD80-K89Q-D90Q-Fc: variant CD80 ECD (K89Q, D90Q) fused to human IgG1 Fc
- IFNγ ([1]; Table 20, D222, 1 μg/ml): 3.7
- IL-2 ([1]; Table 20, D222, 1 μg/ml): 4.3
- IFNγ ([1]; Table 20, D222, 10 μg/ml): 4.0
- IL-2 ([1]; Table 20, D222, 10 μg/ml): 4.0
- IFNγ ([1]; Table 20, D281, 1 μg/ml): 3.3
- IL-2 ([1]; Table 20, D281, 1 μg/ml): 2.3
- IFNγ ([1]; Table 20, D281, 10 μg/ml): 6.7
- IFNγ ([1]; Table 20, D462, 1 μg/ml): 7.0
- IFNγ ([1]; Table 20, D462, 10 μg/ml): 15.0
- IL-2 ([1]; Table 20, D462, 10 μg/ml): 1.7
- IFNγ ([1]; Table 20, D547, 1 μg/ml): 4.0
- IL-2 ([1]; Table 20, D547, 1 μg/ml): 6.3
- IFNγ ([1]; Table 20, D547, 10 μg/ml): 8.0
- IL-2 ([1]; Table 20, D547, 10 μg/ml): 3.3
- Viscosity ([5]; 93.5 mg/ml): 32.8 cP
- Viscosity ([5]; 120.6 mg/ml): 115.8 cP
- Number of tumor regressions ([2]; 0.1 mg/kg): 1/10
- Day 10 tumor volume ([2]; 0.1 mg/kg IV): 857.6 mm^3
- % tumor growth inhibition ([2]; 0.1 mg/kg): 28.41%
- Number of tumor regressions ([2]; 1 mg/kg): 5/10
- Day 10 tumor volume ([2]; 1 mg/kg IV): 299.0 mm^3
- % tumor growth inhibition ([2]; 1 mg/kg): 75.04%
- # IFNγ-producing spots (tumor-reactive T cells in spleen) ([2]; 1 mg/kg): 569.5
- % aggregation ([3]; Table 11, 40° C.): 69.9%
- % aggregation ([3]; Table 11, 45.3° C.): 77.7%
- % aggregation ([3]; Table 11, 49.4° C.): 78.0%
